Assay: label from the status in PepcDB records
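Also: failed if final PepcDB status was selected cloned or expressed and not failed if soluble or beyond.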

Row | Sequence | protein production
1 | MQVEETSIEEIQTKIKRLNSKAGQMKMDLHDLAEGLPTDYTQLMDVAAATYEIYRQLDELKQELKKLENAK | failed
2 | MTSLPTSLLGDLDPTSDRAVFRQIADQLREAIDRGRFKEGEKLPSEAELVEHYGVSRMTVRNSFSILQGEGLVHAEHGKGVFVRPRPPVRRLASDRFARRHREQGKSAFIVEADAAGSHPQVDSLEVKEEKASQDISTRLGSVRRVLARRRRYLLDGRPVEFATSYLPLDIARDTPIAEPNPGPGGIYARLEELGHRLDHFEEEIRARMPSPSEVKTLRLASGVPVIHLIRTAYDTEGRAVEVCDTVMAADAYVLSYQLPAT | failed
3 | MKITVIVPTYRRTKDLTRCLESLEKQSRPADEVLVVVRDTDVETWQFLETIAPHSLPLHTTTVRVPGVVAAMNAGLDIAQGDIIAFTDDDAAPHSNWLAQIETHFLAHEQIAGVGGRDWVYHGDRLEDGTCPVVGQVHWFGRVIGNHHIGIGKPREVDVLKGVNMSFRRSAVHGLRFDQRMLGTGAQVHFEVAFCLALKRAGWKLIYDPQIGVNHYLEHHHHHH | failed
4 | MALTDNTRGALFMALAMASFTANDALTKSVTPYINTGQIMFVRGVMTVVLIYIAARHFGALRPLKTLLRPIIILRCLCEVTAAVLYLTALGLIEFSNASAILQSLPLVVTLGAALFLREPVGWRRWVAIIVGFIGVLVIIRPGPEGFTPGALLVVASLAVTAARDLLTRKMYADVPSLAITVITAFVNMAVGGLLIVPFGGWQPMNFTIVSHLAGSAILVLVGYQAIILSMRTGEISFVAPFRYTGLLWGFMIGVFFFNEKIDSYTIIGAMIVIGSGLYTFYRESLRKRSQMAKRAAATPTAATTVRPASVTKATVTEEAGE | failed
5 | MVETGHHHQHPPAPAAAGHPPVPSMAMARNMGTTWPPAEQLHHLQYCIHSNPSWHETVVLAFQHYIVMLGTTVLIANTLVSPMGGDPGDKARVIQTILFMSGINTLLQTLIGTRLPTVMGVSFAYVLPVLSIIRDYNNGQFDSEKQRFRHTMRTVQGSLIISSFVNIIIGYGQAWGNLIRIFSPIIVVPVVSVVSLGLFLRGFPLLANCVEIGLPMLILLIITQQYLKHAFSRISMILERYALLVCLAIIWAFAAILTVSGAYNNVSTATKQSCRTDRAFLMSSAPWIRIPYPFQWGTPIFKASHVFGMFGAAIVASAESTGVFFAASRLAGATAPPAHVVSRSIGLQGIGVLLEGIFGSITGNTASVENVGLLGLTRIGSRRVVQVSTFFMIFFSIFGKFGAFFASIPLPIFAGVYCILLGIVVAVGISFIQFTDTNSMRNMYVIGVSLFLSLSIAQYFLANTSRAGYGPVRTAGGWFNDILNTIFASAPLVATILATILDNTLEARHASDDARGIPWWKPFQHRNGDGRNDEFYSMPLRINELMPTRFL | failed
6 | MMPSVHRRSRPWDPEATPRIPEMALQPAAGARDLNPRQVESNRALSERLASVFRLWGYDEVSPPRVERLDTLMAGGAIASEDVVRLVADEPLGLRPEMTASIARAACTRLASRPRPLRLWASGTVFQSRAADEGGQCIEENLQCGVELFGVAPIEAEMELLSLLMAAVERLDFQAQHQPRLLMGHTGLMDLLLSPVPPVLRDAVRAALIQYDRLGLETIELEEGLRATLLSLLDCRGTPNEVLERLSSCFGAQALFDDLHRLCRQLQGPAAAQGVRLQLDPTFQPRFELYTGLVFQLVCDTHSAPVVVARGGRYDDLVRRCGAQPGQDFGAGFSLAIDPIRELLSDSSSNPTVAPQLMVAFSERSTLEAALERQRWWHQQGRSAVIELHPFSTRSLAEQQATDQGGFQLDWIDP | failed
7 | MVRDIEDEIRDEKNPRPLDEDDIALLKTYGLGPYSAPIKKVEKEIKDLAKKINDLCGIKESDTGLAPPSQWDLVSDKQMMQEEQPLQVARCTKIISPNTEDAKYVINVKQIAKFVVGLGDKVSPTDIEEGMRVGVDRNKYQIQIPLPPKIDPSVTMMTVEEKPDVTYNDVGGCKEQIEKMREVVELPMLHPEKFVKLGIDPPKGVLCYGPPGTGKTLLARAVANRTDACFIRVIGSELVQKYVGEGARMVRELFQMARSKKACIVFFDEVDAIGGARFDDGVGGDNEVQRTMLEIVNQLDGFDARGNIKVLMATNRPDTLDPALLRPGRLDRKVEFGLPDLESRTQIFKIHTRTMNCERDIRFELLARLCPNSTGADIRSVCTEAGMYAIRARRKTVTEKDFLDAVNKVIKGYQKFSATPKYMVYN | failed
8 | PLAGTITEADVRRYAASCCVQGVTTITDLHNDLADPTIEVYRSATSQADFGVRLVPALAAVSHTPEQAIAKLETLRGHASDKLHYGIVKLVVDGSIQGFTARLRWPGYHNGAANGLWYIAPEELPRLVEAYHRAGVQLHIHTNGDEATEVALDAIEAAQTVAPRPDHRHTLQHCQMASAAQFRRMKNLGVCANLFANHLYYWGDAHYELTMGPERAARLDATGTAQRIGVPFAIHSDAPVTPLAPLFTAWCAVNRVSSSGRVLGRDTEALTTEQALAAITIGAAYTLKMDHLVGSIETGKYADFVVLDEDPLAVPPERLKEIAVWGTVVGG | failed
9 | MNSENHPATTFKSRIKSSLPYTLAVAIIGFVSLWVRMRPYDHVFLSNGFVKFTSNDPWYHIRTLNVLLENYPQRMFFNPMTNYPYGSYIHFGPLYDQMMAITSLILGLGSPSQDLINTVGAYFPAVLGALTVIPVYYIGKYLGGRKTGILAAVFIAFAPGQFLSRSLIGFTDHHVAESLFSTFFMMFFMLAIITAKKKNLRFEDLFNKNFIVVKEPLIYSIIAGVMYSAYQLSWPGASLFLFIALVYAVVQYILDNFNGESSDYLGFTGIITFLVSAILILPFIHPELGFSMYYYTWFHVATAIGTMAGFAALSLIQREFKNRNLKAYYYPLAIFLLGFLGLLAIRFASPSVYSLIISAPNTVFGVLTGGAATIGEVSSMFYYGGTFTLSRAFGNFTVSGFFASIIGLIILLVSVIRKAKPEEVLVLVWSILMLFAIYGQNRFAYYYSINVSILSAYIGGLLLEKVKWNELDEKFKSSVKSPADIPGFLKSFRAKQVLAVLAIAVFLIYPVYGAAMVQSTGSNDPDWAWIEACLWLKSSTPDPGMDYNAIYEAPEDGKLFDYPESAYGVMSWWDYGHYIETLGHRMPNANPFQAGIGGRRGSINETNVPGAAPFLTAQSEEEATEVLESIHPDPEKSGARYIMSDERMAVDIFMAMPEWTLDTEGYMQPYWTGDGYQYLPSKRYFDSMESRLHFLDGNGLKQYRLVYETWAYQTQEAGYKQVYNFLYGSSIPEVDSGYVKIFEYVKGAKITGTVSPNETVNINTTILTGQGRTFEYSQSTSSDSEGRYEFIVPYSTEGPIPGETQFDTAPTGAYVVSYGDTTTEVRVSEEAVLNGEEIKV | failed
10 | MAQIPFDLKHADFARLAEVGLRLPGLREVKTLTQTSWIEAPTTIIGTVVSGAELQVGAFCSLSGGTLNNVHIGRYSSIAAGTIIGVHEHPTSWLTTSRTSYWPQVYGWDELIAPDRAAEIRAGKRPFTRSCPITEIGHDVWIGQGCFIKSGVRIGHGSVIGARATVTKDVPPYSIVLGTPGRVVRTRVPEPLIERLLAVEWWRYSIYDLFAAPFDDVARALDVIEDRIAEGAIKPYEAPLVTPADLAEPLGLAARLAARFPRPLARAS | failed
11 | MSLTLRVVPELYCFDINVSQSFFVDVLGFEVKYERPDEEFVYLTLDGVDVMLEGIAGKSRKWLSGDLEFPLGSGVNFQWDVIDIEPLYQRVNESAADSIYLALESKSYQCGDSIATQKQFMVQTPDGYLFRFCQDIHEGHHHHHH | not failed
12 | MTEKSQEPTAALDAEQVAAYLSQHPEFFVEHDELIPELRIPHQPGDAVSLVERQVRLLRERNIEMRHRLSQLMDVARENDRLFDKTRRLVLDLLDATSLEDVVSTVEDSLRHEFQVPYVSLILFSDSSVSVGRSVSSAEAHQAIGGLLSGGKTVCGVLRPHELAFLFGESDRDEIGSAAVVSLSFQGLHGVLAIGSPDPQHYKSSLGTLFLGYVAEVLARVLPRFSSPLRSVR | not failed
13 | MMIKIIREMPHGVAALCLIQAFSTFSYAVQYSSLALFITKQLGIANLSANSIVGLFLSFSYIFQLIGGVIGSRFISNRLLFVTTILIQNMGLFFLAQANPSLLNIGLSLFMVGSGLNVTSSNSMLTQCFIPQDDRRESAFFLSYAGMNVGYCIGYIACGFFDYSNQYQYLLYASILTNSIALLIIIKNWAYLGDKNFPLPNLTKRNWYFIKNILAIAFITFLIPFMRVCFEFANFCNGLVIITCLFMFLIIFILGLKQKSSSDRKKMMAYLILAISSVLFWMIYLTGPMGVTLFVKNNVDKHLFSFELATQWIKNINPVVIIFGAPIMSMLINKLKAKGFHVSAPVQFSCSFVFLALSFLCLIFGIICSNSYGYISIYWIIGHHILQGMSELLLGPVGYALIGRIAPPKLQGILMGTWMLVIGVAASFSQYFSNAMVQSESVDPLITNQDFLTAFKQLGLWSLLCAALLYFVSGKLTRIINGTKDNKSVNESKALPMPYSN | failed
14 | MRDHVEIGIGREARRTYSLDDISVVSSRRTRSSKDVDTTWHIDAYKFDLPFMNHPSDALASPEFVIEMGKQGGLGVINAEGLWGRHADLDEAIAKVIAAYEEGDQAAATRTLQELHAAPLDTELLSERIAQVRDSGEIVAVRVSPQNVREIAPIVIKAGADLLVIQGTLISAEHVNTGGEALNLKEFIGSLDVPVIAGGVNDYTTALHMMRTGAVGIIVGGGENTNSLALGMEVSMATAIADVAAARRDYLDETGGRYVHIIADGSIENSGDVVKAIACGADAVVLGSPLARAEEAAGKGYFWPAVAAHPRFPRGVVTESVDLDEAAPSLEQILHGPSTMPWGVENFEGGLKRALAKCGYTDLKSFQKVSLHVN | not failed
15 | MAKHEQILVLDPPSDLKFKGPFTDVVTTNLKLQNPSDRKVCFKVKTTAPRRYCVRPNSGIIDPGSIVTVSVMLQPFDYDPNEKSKHKFMVQTIFAPPNISDMEAVWKEAKPDELMDSKLRCVFEMPNENDKLND | not failed
16 | MRNTDDYIIFYHLVEQGSFSSAARHMELTKSVVSKRIAKLEQELGVQLLYRTTRTLTLTEAGQSFFVHAKAVYKAVATAEESIVGLGKNLSGNIKITVPTISGELILPGVISEFNDKYPDINIDMELDNRFVDIVNERFDLAIRTGMLPDSSLIARKLVDANWVVCASPKYLAKHGIPKQPIELTKHNCLVYSYQETGAREWAFKAGDKMYQVTVDGNLCTNNSSALRNVALLGQGVIYVPRVLVYEDLKQGSLIQLFKEETAKCLGIYAVYPYTRQQPEKIKIFIDHLYNSFQSQNHRF | failed
17 | MNNPQDYSHKECLKASLLETFGFDGFRPGQEQTITQLLKGQSSLSIFPTGSGKSLCYQLTALHLPHLTLVVSPLLALMKDQLSFLASKGIKAASIDSTLKGNEAQTVMAGVRDGDIKVLMVSVERFKNERFRQFIESVPVSMLVVDEAHCISEWGHNFRPDYLKLPSYCQALNISLVLLLTATATRKVKQDMAAKFAIRDEHIVQTGFYRSNLDLSVLPVTQAHKNKQLEQIISAQQGAGIVYVTLQHSAETVAQYLKQQGINACAYHAGFDSDTRSQIQQDFMAGKIQVIVATIAFGMGIDKSNIRFVIHYDLPKSIENYSQEIGRAGRDGLPSQCFTLANLDGLNTVENFVYGDTPEFTGIEMLLNTIKSEVITSTHVGISDNRSEGKWELQILQLSNAVNIKQLPLKTLLVQLELAGVIEPLYAYFADFKIKLLKPKAEIINSFNDQRKDFLQRIFNATDFKKVWGSLNFDTLLQDQSIERNRVIAALEYLQEQQLIVLETKGMTEVFNIKLNELADPSLCQTLSNYFKDNEEKEIKRIATLVRFFQLDTCLTVNLARYFDDTSFDDKRFDGNSSDNNSLDSARNSGTVPQCGHCSVCRGQVAVLEHSQAQIPWPSDEALKQGMTELAERLSGKINQPLSIESFCRFFAGMSVPLFGRNKVRQLSGFGVCEQQRYQAILEKLASLSK | failed
18 | MKLERILPFSKTLIKQHITPESIVVDATCGNGNDTLFLAEQVPEGHVYGFDIQDLALENTRDKVKDFNHVSLIKDGHENIEHHINDAHKGHIDAAIFNLGYLPKGDKSIVTKPDTTIQAINSLLSLMSIEGIIVLVIYHGHSEGQIEKHALLDYLSTLDQKHAQVLQYQFLNQRNHAPFICAIEKIS | failed
19 | SAVDCPQHCDSSECKSSPRCERTVLDDCGCCRVCAAGRGETCYRTVSGMDGMKCGPGLRCQPSNGEDPFGEEFGICKDC | failed
